In US20180057581A1 (MorphoSys, published 2018):

Legend:
Assay in all cases: MSD specificity profiling, coated protein, Camille at 100 nM
Lectin (Lens culinaris) = target: T1, Lectin (Lens culinaris) (Lens culinaris, UniProt P02870 31-210; P02870 218-269, limits assumed)
T1 sequence (looked up) 1: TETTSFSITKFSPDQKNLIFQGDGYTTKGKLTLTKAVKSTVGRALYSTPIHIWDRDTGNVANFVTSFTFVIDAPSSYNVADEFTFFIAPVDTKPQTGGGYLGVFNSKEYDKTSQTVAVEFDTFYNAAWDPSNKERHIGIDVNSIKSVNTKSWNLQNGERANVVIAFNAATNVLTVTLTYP
T1 sequence (looked up) 2: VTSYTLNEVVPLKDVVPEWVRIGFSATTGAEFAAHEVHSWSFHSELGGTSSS
Experimental: (§1) For this specificity profiling test the different proteins and controls were coated on two 384-well MSD plates with a concentration of 1 μg/ml at 4° C. over night. Plates were blocked with BSA and washed three times with PBS with 0.05% (v/v) Tween 20. Antibody samples were diluted to 100 nM and 10 nM in assay buffer (PBS with 0.5% (w/v) BSA, 0.05% (v/v) Tween 20). […] Samples and controls were incubated for three hours at room temperature. The plates were washed three times and 30 μl detection antibody (ECL-labeled anti-human Fab) were added per well and incubated for 1 h. After washing, MSD Read Buffer T with surfactant was added and electrochemiluminescence signals were detected using a Sector Imager 6000 (Meso Scale Discovery, Gaithersburg, Md., USA).

Lysozyme (chicken) = Lysozyme (chicken) (chicken, UniProt P00698 19-147)
Experimental: as §1

Serum albumin (human) = Serum albumin (human) (human, UniProt P02768 25-609)
Experimental: as §1

[1] = target: Cell surface receptor 3 (human) (human)
Experimental: as §1

RNase B (cow) = target: T2, RNase B (cow) (cow, UniProt P61823 27-150)
T2 sequence (looked up): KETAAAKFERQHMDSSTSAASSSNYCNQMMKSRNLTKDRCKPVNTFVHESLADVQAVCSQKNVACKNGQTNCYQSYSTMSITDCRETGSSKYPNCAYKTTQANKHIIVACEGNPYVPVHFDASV
Experimental: as §1

Fibrinogen (bovine) = target: T3, Fibrinogen (bovine) (bovine, UniProt P02672 20-615; P02676 1-468; P12799 25-444)
T3 sequence (looked up) 1: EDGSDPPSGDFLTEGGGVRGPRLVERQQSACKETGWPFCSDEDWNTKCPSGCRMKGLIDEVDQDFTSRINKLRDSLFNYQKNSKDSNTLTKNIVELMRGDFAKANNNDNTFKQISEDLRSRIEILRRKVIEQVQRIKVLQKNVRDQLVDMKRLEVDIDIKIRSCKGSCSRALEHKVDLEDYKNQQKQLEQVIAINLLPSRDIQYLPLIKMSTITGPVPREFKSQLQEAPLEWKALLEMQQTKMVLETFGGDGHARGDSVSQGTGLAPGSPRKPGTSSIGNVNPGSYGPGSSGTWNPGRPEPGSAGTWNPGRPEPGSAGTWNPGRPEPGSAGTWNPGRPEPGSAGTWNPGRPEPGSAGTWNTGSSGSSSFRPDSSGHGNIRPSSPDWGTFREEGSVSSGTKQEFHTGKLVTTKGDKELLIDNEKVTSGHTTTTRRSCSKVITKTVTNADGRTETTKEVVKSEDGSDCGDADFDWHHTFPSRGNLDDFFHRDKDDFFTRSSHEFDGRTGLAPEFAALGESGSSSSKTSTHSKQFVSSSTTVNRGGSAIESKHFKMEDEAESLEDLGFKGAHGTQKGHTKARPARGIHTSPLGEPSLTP
T3 sequence (looked up) 2: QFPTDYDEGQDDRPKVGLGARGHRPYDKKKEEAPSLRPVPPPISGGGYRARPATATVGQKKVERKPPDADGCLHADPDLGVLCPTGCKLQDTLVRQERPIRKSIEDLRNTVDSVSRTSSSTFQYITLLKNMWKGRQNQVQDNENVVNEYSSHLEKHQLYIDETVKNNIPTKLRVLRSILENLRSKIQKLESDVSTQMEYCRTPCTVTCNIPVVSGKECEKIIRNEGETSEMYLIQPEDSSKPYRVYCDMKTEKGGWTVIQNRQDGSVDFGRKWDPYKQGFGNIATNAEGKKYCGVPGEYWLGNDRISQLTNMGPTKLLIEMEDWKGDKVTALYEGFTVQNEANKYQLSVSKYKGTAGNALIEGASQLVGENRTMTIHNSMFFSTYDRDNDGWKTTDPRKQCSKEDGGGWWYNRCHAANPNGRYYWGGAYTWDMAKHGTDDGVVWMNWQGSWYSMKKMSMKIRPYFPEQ
T3 sequence (looked up) 3: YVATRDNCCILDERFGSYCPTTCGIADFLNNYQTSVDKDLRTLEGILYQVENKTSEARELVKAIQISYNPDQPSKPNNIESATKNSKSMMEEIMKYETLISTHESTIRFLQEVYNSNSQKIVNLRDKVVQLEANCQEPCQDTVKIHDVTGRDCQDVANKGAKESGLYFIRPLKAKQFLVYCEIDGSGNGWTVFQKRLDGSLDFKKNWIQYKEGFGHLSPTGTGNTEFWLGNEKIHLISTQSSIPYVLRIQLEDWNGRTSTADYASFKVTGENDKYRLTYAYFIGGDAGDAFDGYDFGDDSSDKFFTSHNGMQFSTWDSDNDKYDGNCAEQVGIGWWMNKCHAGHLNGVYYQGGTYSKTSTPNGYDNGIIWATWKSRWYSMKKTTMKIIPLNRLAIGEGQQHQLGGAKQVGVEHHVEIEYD
Experimental: as §1

RNase A (cow) = target: T4, RNase A (cow) (cow, UniProt P61823 27-150)
T4 sequence (looked up): T2 sequence (looked up)
Experimental: as §1

Cytokine 1 (human) = Cytokine 1 (human) (human)
Experimental: as §1

Cytokine 2 (human) = Cytokine 2 (human) (human)
Experimental: as §1

[2] = target: Cell surface receptor 1 (human) (human)
Experimental: as §1

Lysozyme (chicken), sequence (P00698 19-147): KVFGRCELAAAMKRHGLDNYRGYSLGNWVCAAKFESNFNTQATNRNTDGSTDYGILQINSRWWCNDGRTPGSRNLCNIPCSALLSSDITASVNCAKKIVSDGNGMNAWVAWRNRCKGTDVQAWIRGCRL

B1: Camille (format not stated) (antibody, V domains shown)
VH: QVQLQQSGPGLVKPSQTLSLTCAISGESVSTSSAAWNWIRQSPSRGLEWLGRTYYRSKWKHEYAVSVKSRITINPDTSKNQFSLQLNSVTPEDTAVYYCARDRYYYSAFDYWGQGTLVTVSS
VL: QSALTQPASVSGSPGQSITISCTGTSSDVGGYNSVSWYQQHPGKAPKLLIYAVSNRPSGVSNRFSGSKSGNTASLTISGLQAEDEADYYCASYDERFTRVFGGGTKLTVLG
notes: also called Antibody Camille
- signal normalized to reference antibody MOR03207 (Lectin (Lens culinaris)): 1 ratio
- signal normalized to reference antibody MOR03207 (Lysozyme (chicken)): 0 ratio
- signal normalized to reference antibody MOR03207 (Serum albumin (human)): 1 ratio
- signal normalized to reference antibody MOR03207 [1]: 1 ratio
- signal normalized to reference antibody MOR03207 (RNase B (cow)): 1 ratio
- signal normalized to reference antibody MOR03207 (Fibrinogen (bovine)): 1 ratio
- signal normalized to reference antibody MOR03207 (RNase A (cow)): 1 ratio
- signal normalized to reference antibody MOR03207 (Cytokine 1 (human)): 1 ratio
- signal normalized to reference antibody MOR03207 (Cytokine 2 (human)): 2 ratio
- signal normalized to reference antibody MOR03207 [2]: 1 ratio
